Experimental findings from publication PMC5928105 are described below.

For this assay, the target named is 20S proteasome core (mouse (endogenous in mouse retina)) (UniProt Q9Z2U0). Description: SEC; retinal lysates of WT or PA28α overexpressing mice on Superose-6 (Fig. 1) or Superose-6 Increase; 50 mM Tris-HCl pH 7.4, 40 mM NaCl, 5 mM MgCl2, 10% glycerol, 1 mM DTT, 1 mM ATP; 0.5 ml fractions western-blotted for β1 (20S), PSMD11 (19S) and PA28α (11S). A general note: SEC sorts molecules by how far they enter the pores of the column.
UniProt Q9Z2U0, sequence (Q9Z2U0 whole entry, looked up): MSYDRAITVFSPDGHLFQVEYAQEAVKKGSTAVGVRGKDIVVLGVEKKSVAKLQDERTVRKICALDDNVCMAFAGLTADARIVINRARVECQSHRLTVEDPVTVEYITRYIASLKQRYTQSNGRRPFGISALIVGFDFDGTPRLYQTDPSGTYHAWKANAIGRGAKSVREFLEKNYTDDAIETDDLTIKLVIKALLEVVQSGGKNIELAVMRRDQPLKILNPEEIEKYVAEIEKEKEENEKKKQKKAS

In the case of “19S proteasome cap (from UniProt Q8BG32 1-422; Q8BJY1 1-504; Q99JI4 1-389; Q3TXS7 1-953) (complex)”, the percent of 20S cores co-eluting with 19S caps worked out at 45%.

“11S caps formed upon PA28α overexpression (homomeric, PA28α subunits alone) (from UniProt P97371 1-249) (complex)” returned a percent of PA28α co-eluting with 20S of 2%.
